# Source: US20180185504A1 (Regeneron, published 2018)
# T1: human PRLR construct with an HA tag on HEK293/hPRLR cells (human, UniProt P16471 25-622)
# T1 sequence: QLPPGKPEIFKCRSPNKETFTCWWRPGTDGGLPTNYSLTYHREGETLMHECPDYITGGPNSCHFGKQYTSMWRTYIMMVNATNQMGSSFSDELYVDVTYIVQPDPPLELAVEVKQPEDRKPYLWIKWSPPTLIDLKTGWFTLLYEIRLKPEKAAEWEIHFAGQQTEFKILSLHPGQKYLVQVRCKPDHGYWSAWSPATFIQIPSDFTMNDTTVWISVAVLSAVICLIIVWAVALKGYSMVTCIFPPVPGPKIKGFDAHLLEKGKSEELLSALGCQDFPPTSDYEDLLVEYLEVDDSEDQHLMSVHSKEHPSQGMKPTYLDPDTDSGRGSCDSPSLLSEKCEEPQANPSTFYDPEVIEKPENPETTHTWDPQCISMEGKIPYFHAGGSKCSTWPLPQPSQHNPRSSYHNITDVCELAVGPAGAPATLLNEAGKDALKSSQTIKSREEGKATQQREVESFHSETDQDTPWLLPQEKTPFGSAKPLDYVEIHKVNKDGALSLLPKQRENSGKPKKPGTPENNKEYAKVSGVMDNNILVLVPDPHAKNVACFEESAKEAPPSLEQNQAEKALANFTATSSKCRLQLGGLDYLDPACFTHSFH
# T2: monkey macaca fascicularis PRLR construct with an HA tag on HEK293/mfPRLR cells (macaca fascicularis, UniProt A0A2K5WXK1 25-619)
# T2 construct: stably transfected into HEK293
# T2 sequence: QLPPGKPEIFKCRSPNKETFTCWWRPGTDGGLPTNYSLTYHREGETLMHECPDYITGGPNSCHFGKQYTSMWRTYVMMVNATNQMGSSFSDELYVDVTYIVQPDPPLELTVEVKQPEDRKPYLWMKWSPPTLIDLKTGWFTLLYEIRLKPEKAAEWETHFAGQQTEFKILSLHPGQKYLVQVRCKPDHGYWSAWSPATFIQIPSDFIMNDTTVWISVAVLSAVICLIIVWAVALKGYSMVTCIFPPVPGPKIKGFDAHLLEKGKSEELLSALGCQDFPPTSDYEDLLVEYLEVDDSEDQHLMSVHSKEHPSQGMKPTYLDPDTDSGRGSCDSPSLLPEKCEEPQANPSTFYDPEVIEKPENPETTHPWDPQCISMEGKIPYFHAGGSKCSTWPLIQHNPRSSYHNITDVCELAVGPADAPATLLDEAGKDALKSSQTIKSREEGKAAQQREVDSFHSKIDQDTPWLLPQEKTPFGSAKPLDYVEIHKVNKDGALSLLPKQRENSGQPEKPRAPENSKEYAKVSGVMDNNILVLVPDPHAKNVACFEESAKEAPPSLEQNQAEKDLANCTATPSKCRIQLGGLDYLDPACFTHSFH
# T3: human PRLR on cells (endogenous on T47D, T47D#11, MCF7); introduced in HEK293/hPRLR/STAT5-Luc, 293/hPRLR, … (human, UniProt P16471 25-622)
# T3 sequence: T1 sequence
# B1: H1H6966N (antibody, human IgG1, V domains shown)
# VH: QVQLVQSGAEVQKPGASVKVSCKVSGYTLTALSIHWVRQAPGKGLEWMGNFDPGDGETIHAQKFQGRVTMTGDTSTDTAYMELSSLRSEDTAVYYCVGVTFDYWGQGTLVTVSS
# VL: EIVMTQSPATLSVSPGERATLSCRASQSVASNLAWYQQKPGQAPRLLLYGASTRATGIPARFSGSGSGTEFTLTISSLQSEDFALYYCQHYNNWPLTFGGGTKVEIK
# notes: also called H2M6966N
# B2: H1H6960N (antibody, human IgG1, V domains shown)
# VH: EVQLVESGGGLVKPGGSLRLSCAASGITFSSYSMNWVRQAPGKGLEWVSSISTRSSLIHYADSVKGRFTISRDNAKNSLYLQMNSLRDEDTAVYYCARWDAAAAFDYWGQGTLVIVSS
# VL: DIQLTQSPSFLSASVGDRVTITCWASQGISSYLAWYQQKPGKAPKLLIYVASTLQSGVPSRFSGSGSGTEFTLTISSLQPEDFATYFCQQLNSYPLTFGGGTKVEIK
# notes: also called H2M6960N
# B3: H1H6959N2 (antibody, human IgG1, V domains shown)
# VH: EVQLVESGGGLVQPGRSLRLSCAASGFTFDDYAMHWVRQAPGKGLEWVSGISWHSGIIGYADSVKGRFTISRDNAKNSLYLQMNSLRTEDAALYYCAKIGSYFYFDSWGQGTLVTVSS
# VL: EIVLTQSPGTLSLSPGERATLSCRASQSVSSNYLAWYQQKPGQAPRLLIYGASSRATGIPDRFSGSGSGTDFTLTISRLEPEDFAVYYCQQFGSSGYTFGQGTNLEIK
# notes: also called H2M6959N2
# Columns and labels:
# [1] = biological target: T1, human PRLR construct with an HA tag on …; experiment: FACS on HEK293/hPRLR cells
# [2] = biological target: T2, monkey macaca fascicularis PRLR …; experiment: FACS on HEK293/mfPRLR cells
# [3] = biological target: T3, human PRLR on cells (endogenous on …); experiment: cell-based or functional assay
# [4] = biological target: T3, human PRLR on cells (endogenous on …); experiment: cell-based or functional assay; remark: listed apart in the source
# [5] = biological target: T3, human PRLR on cells (endogenous on …); experiment: imaging of alexa488 intensity on T47D cells
# How it was run: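 T47D cells labelled on ice with alexa488 anti-hFc Fab secondary for 30 min, then held 1 h at 37 °C in PBS+2% FBS or at 4 °C. After fixation and DRAQ5 staining, whole-cell (binding) and intracellular-vesicle (internalization) alexa488 intensities at 37 °C quantified by imaging.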
Binder,FACS Cell Binding (Fold Above Background) [1] [fold],FACS Cell Binding (Fold Above Background) [2] [fold],"% Internalization relative to Control I (T47D cells, imaging) [3] [%]",Percent Blocking at 100 nM Antibody (STAT5-Luc reporter) [4] [%],% Total Binding relative to Control I [5] [%],"IC50 of Blocking 5 nM PRL [M] (STAT5-Luc reporter, HEK293/hPRLR/STAT5-Luc cells) [4]"
B1,29,18,137,54,111,–
B2,29,23,120,100,89.7,1.58e-09
B3,6,11,15.3,52,2,–
